B1: LINE1-full (parent)
chain: UACGUAGGUGGUUUUCCCCUGAUAGUGCUAAGGGGGCCUGGAAGUUUGGACUGGGCAGAGCUCAACACAGCGUGGCAAAGUGGCUGUGGCUAGACUGCCUCUCUGGAUUCCUCGUCACUCAGCAGGGCAUCUCUGAGAGAAAUGCC

Variants of: B1
Experiment: self-cleavage, relative activity (ratio to wild type); higher = more cleavage; in vitro, sequencing; the parent is a self-cleaving ribozyme

Variant | self-cleavage
U26A U96A | 0.09
U26A U96C | 0.16
U29C A94U | 0.56
G27U U47C | 0.88
U26A U52C | 0.8
U29A A136G | 1.38
U29A A136U | 1.38
U26G U39A | 1.12
U26G U39C | 1
U26A A77C | 0
U26A A77U | 0.78
U26C U87C | 0.26
U29A U115C | 1.98
C28U A141G | 1.53
U26A G35U | 1.14
U26A G35A | 0.67
C28U A59G | 0.09
U26A G72A | 0.94
C28U A136G | 0
U26C A50G | 1.14
C28U C63A | 0.02
C28A | 1.07
C28U | 1.08
C28G | 0.98

Variant | self-cleavage
G27U C61U | 0.06
U26C U46A | 0
U29C A31U | 1
U29A C145U | 0.61
U26A G122A | 0.72
U26C G74A | 1.17
U26C G74U | 1.42
U29A A92G | 0
G27A A138C | 1.18
C28U A77G | 1.38
C28U A77C | 1.07
U26G U62C | 0.19
U26G U62A | 0.03
U29C A117U | 1.51
U29A A65U | 0.23
G27U U73C | 1.51
U26C U132A | 1.73
U26C G122U | 1.05
U26C A92G | 0.04
U26A A69G | 0.29
U26A A69U | 0.08
U26A U108C | 1.13
U29A U100A | 0.91
C28U C101U | 1.06

Variant | self-cleavage
U29A A50G | 0.51
U29A A50U | 0.89
C28A A124G | 0.56
U29C A136G | 0.92
U26A A129U | 1.06
C28G A65U | 0
C28A A92G | 0.12
G27C U52A | 0.91
C28U C123U | 1.03
U29A A129G | 1.11
U26A A65G | 0.16
U26A A65U | 0.14
C28U U52C | 1.58
U26A U62A | 0.05
U26A U62C | 0.04
G27A U81C | 0.8
U26A G137A | 1.53
C28U U47G | 0.7
U26A A92G | 0.05
U26A U109C | 0.95
U26G U108C | 1.41
U26G U108A | 1.03
G27A G53U | 1.14
G27A G53A | 0.94

Variant | self-cleavage
U26A G126A | 0.82
U26A A136G | 1.57
U26C C146U | 1.68
U26A C145A | 1.07
U29A C133U | 0.85
G27A A79G | 1.07
G27A A79U | 1.36
U26C C111A | 1.04
U26C G114A | 1.22
U29A U108C | 2.61
U29A A140G | 1.3
C28A A129G | 1.5
U26A U130C | 1.24
G27A A78G | 0.74
U26G A59G | 0.41
U26A U115A | 1.07
U26A U112A | 0.9
U26A U112C | 1.18
G27U U52C | 0.36
C28G U115C | 0.75
C28U A107G | 0.88
G27A A57U | 0.04
U26G A50G | 0.56
U29A U109C | 1.25

Variant | self-cleavage
G27A U91C | 0.35
U29C A64U | 0.54
U26C U39A | 1.9
U26C U39G | 0.65
U26G U143A | 0.68
U26A A50G | 0.92
C28U G54A | 0.65
C28G U39C | 0.82
C28U A94G | 0.3
C28U A142G | 0.79
U26C A129U | 1.24
U29A U81C | 0.92
U26C A141G | 1.27
C28G C98A | 0.12
U29C A79U | 2.16
U29C A79G | 1.16
U29A A30G | 0.86
U29A A42G | 1.65
U26A G44A | 1
U26A G93A | 0
U29A U46C | 1.21
G27C U112C | 1.53
U26A U119C | 0.97
U26G U130C | 0.86

Variant | self-cleavage
U26C A59C | 1.37
U26C A59G | 0.08
U26G G105A | 1.06
U26A C63U | 0.37
G27A U115C | 1.54
C28A A42G | 0.82
U29C A92U | 0.81
U26C A107G | 1.33
U26C A31U | 1.05
C28A A67G | 0.55
C28A U39A | 1.54
U26A U102C | 1.13
C28U A50G | 1.09
U29A A78U | 1.48
U26C U29C | 1.15
C28A A141G | 0.61
U29C A50G | 0.82
U26A U45C | 1.37
U26A U45A | 0.84
U29A U85A | 0.12
U29A U85C | 0.29
U26C A77G | 1.93
U26C A77C | 1.61
U26C G33U | 1.01

Variant | self-cleavage
U26C G33A | 0.7
U29A G35U | 1.16
U26G A121C | 1.31
U26A A42U | 1.03
U26A A42G | 1.02
U26C A43U | 1.21
U26C C28U | 1.15
U26C A64U | 0.61
U29A A107G | 1.56
U26C U130C | 1.7
U26C U130A | 1.35
U26C U62C | 0.1
U29A A59G | 0.16
G27C A67C | 0.1
G27C U100C | 1.13
U26A U46C | 1.45
G27U G41U | 1.26
U26C G97A | 0.07
U29A A57G | 1.01
C28G U100A | 0.81
U26C G139A | 1.34
U26C G144A | 1.02
U26C U81A | 1.68
U26C U81C | 1.93

Variant | self-cleavage
C28A U47C | 0.63
G27U G82A | 1.51
C28A G36A | 1.9
U26C G32A | 1.03
U26C G32C | 0.94
U29A U39G | 1.58
U26C U47C | 1.88
U29A U104A | 1.26
G27A A94U | 0.18
G27A A94G | 0.23
U26C U112A | 1.63
U26C C123U | 1.06
U26A G32A | 0.44
U26C U108C | 1.76
U26C U108G | 2.12
U26C U108A | 1.5
C28A A57G | 1.53
U29A G74A | 0.59
U29C A78U | 2.53
U29A U47C | 0
U26C G88A | 0.05
C28U A138U | 0.9
C28A U108C | 1.82
C28A U81C | 0.89

Variant | self-cleavage
U29C A141G | 1.27
G25U U119C | 1.74
C28A A64G | 0.28
C28A U85C | 0.17
C28U A92U | 0.43
U29A U134A | 1.19
U29A A67G | 0.67
U26A A94G | 0.24
U29A G41A | 1.7
U26A U91A | 0.44
U26G A141G | 0.97
U26C C118U | 1.05
U26A G53A | 1.44
C28U U115G | 1.3
U26C G44A | 1.17
U29C A65U | 0.42
U26C U100C | 1.29
U26C A138G | 1.78
U26C A138U | 1.57
U26C A138C | 1.28
G27A A121G | 1.46
U26C G86A | 0.05
U26A A59U | 0.65
U26G A78G | 1.31

Variant | self-cleavage
G27A A30U | 1.58
U26C G70A | 0.14
G27A U29C | 0.79
G27A G34A | 0.64
U26C A124U | 1.25
U26C G125A | 1.61
U26C G125U | 0.92
U29C A121G | 1.43
U29A A43G | 1.77
U26C G105U | 1.57
U26A G55A | 0.25
U29A U62A | 0
U26G U81C | 0.58
G27A U62C | 0.08
U26G A77G | 2.53
U26C U52A | 1.53
U29C A77G | 1.92
G27A A140G | 1.38
C28A U96C | 0.17
U26C A140C | 1.19
U26C A140G | 1.19
U26A U132C | 1.15
U26C G60A | 0.12
U29A A138G | 1.11

Variant | self-cleavage
U26C U119A | 1.25
U29C A69G | 0.53
U26G G122A | 1.81
U29A G126A | 0.75
U29C A43U | 1.18
U29C A43G | 1.29
C28U C38U | 1.06
U26A G36C | 0.41
U26A G127U | 1.16
U26A C113U | 0.86
U26C C131G | 2.07
U26C C131A | 0.78
U26C U73G | 0.97
U26C C38U | 1.29
U26A A57C | 0.02
U26C A121G | 1.64
U26C A121U | 1.43
C28A G32A | 0.7
U26C C95U | 0.24
U26A A107G | 1.06
U26A A107U | 1.09
U26G A31U | 1.16
C28U U81A | 1.44
C28U U81C | 1.39

Variant | self-cleavage
U29A A121C | 0.84
U26C U134A | 1.32
U26C A65U | 0.14
U26C A65G | 0.13
U26A C84U | 0.02
U26C C71U | 0.9
U26C A67G | 1.16
U29A U73A | 1.55
U26A U81A | 1.29
U26A U81C | 0.74
C28U A78G | 1
U26C A79U | 0.68
U26C A79G | 1.01
C28U U46C | 1.21
U26A U39A | 0.99
U26C U115C | 1.84
U26C U115A | 1.33
U26A A117U | 0.98
U26A A141U | 0.61
G27A U102A | 1.12
U26G G139A | 1.47
G27A U96C | 0.1
C28G C128U | 1.8
C28A A77U | 1.42

Variant | self-cleavage
U26G A107G | 0
U26A A67U | 0.03
U26C A136G | 1.42
G27A A42G | 0.99
U26C U102C | 1.22
U26C U102A | 1.31
U29A U96C | 0.13
U29A U87G | 0.12
U29A U87C | 0.22
U26C U45A | 0.99
U26C U45C | 1.07
U26A G82U | 0.93
U26A A31U | 1.43
U26A U104C | 1.28
U29A A124G | 0.91
C28U A117G | 1.58
U29C A57U | 0.33
U29C A57G | 0.98
G27C G54U | 0.17
U26A A30U | 1.56
U26G A69G | 0.17
U29C A30G | 0.89
U29C A30U | 1.23
U26C C101U | 1.46

Variant | self-cleavage
U26A U134A | 1.23
U26A G70A | 0.11
U26C C120U | 1.17
U26A C28U | 0.99
U26C G35C | 2.65
U26C G35U | 1.56
U26C U96C | 0.29
U26C C116U | 1.48
U26C A69U | 0.11
U26C A69G | 0.46
G27A G36C | 1.24
U26G U73A | 1.61
U26G U73C | 0.96
U26A U87G | 0.13
U26A U87C | 0.15
U26C G72U | 1.02
U26C G72A | 0.93
U29A A64U | 0.25
U26G A57G | 0.82
C28G A77G | 0.89
G27U U132A | 1.23
U26A C90U | 0.04
